Our source for the dissociation t-half and fold decrease in fold change of the off-rate with palbociclib against DMSO values is publication PMC8184839.

Experiment [1] has as its target CDK2-mTurquoise-Δ50 lamin A (UniProt P24941). The experiment can be described thus: recruitment to a CDK tethered at the inner nuclear membrane, with FRAP; live RPE-1 cells with mVenus-cyclin and CDK-mTurquoise-Δ50 lamin A, p21 and p27 depleted by siRNA co-knockdown; recovery of mVenus after photobleaching; 37 °C.
The target of experiment [2] is cyclin D1 with the CDK6n-CDK4c chimera (UniProt P24385). Put plainly: recruitment to a CDK tethered at the inner nuclear membrane, with FRAP; as a4 but with 6 µM palbociclib overnight and throughout, or 6 µM palbociclib, ribociclib or abemaciclib added acutely about 4-5 min after photobleaching.
Sequence of cyclin D1 with the CDK6n-CDK4c chimera (P24385 whole entry, looked up, change not shown): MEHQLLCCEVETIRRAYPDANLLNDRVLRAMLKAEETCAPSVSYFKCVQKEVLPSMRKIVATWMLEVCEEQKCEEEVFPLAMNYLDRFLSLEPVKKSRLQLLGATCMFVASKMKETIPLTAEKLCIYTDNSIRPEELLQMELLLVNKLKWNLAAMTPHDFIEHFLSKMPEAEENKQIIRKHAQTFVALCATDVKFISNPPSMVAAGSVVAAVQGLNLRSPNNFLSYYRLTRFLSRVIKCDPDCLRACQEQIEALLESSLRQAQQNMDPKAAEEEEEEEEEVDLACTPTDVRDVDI

Sequence of mRuby3-p21 (P38936 whole entry): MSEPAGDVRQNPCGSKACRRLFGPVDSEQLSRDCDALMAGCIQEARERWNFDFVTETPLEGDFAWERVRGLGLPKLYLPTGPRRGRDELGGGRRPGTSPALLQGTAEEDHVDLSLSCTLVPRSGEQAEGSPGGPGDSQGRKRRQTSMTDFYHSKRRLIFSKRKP
Sequence of mVenus-cyclin E1 (P24864 whole entry): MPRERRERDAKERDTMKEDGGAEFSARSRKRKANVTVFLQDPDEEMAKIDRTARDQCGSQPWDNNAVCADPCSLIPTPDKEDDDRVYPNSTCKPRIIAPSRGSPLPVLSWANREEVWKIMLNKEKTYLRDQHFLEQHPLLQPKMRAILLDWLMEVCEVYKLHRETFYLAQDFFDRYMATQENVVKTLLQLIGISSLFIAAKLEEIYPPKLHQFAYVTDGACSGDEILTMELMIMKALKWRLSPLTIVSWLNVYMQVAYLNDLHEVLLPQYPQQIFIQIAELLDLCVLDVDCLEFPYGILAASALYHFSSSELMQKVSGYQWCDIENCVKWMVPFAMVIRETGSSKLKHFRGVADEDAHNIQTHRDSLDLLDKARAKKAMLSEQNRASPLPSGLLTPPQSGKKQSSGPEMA

Take “mVenus-cyclin E1 (from UniProt P24864 1-410) (natural protein; other documents disagree on this pair)”: the dissociation t-half in experiment [1] amounted to 3 min.

Take “mRuby3-p21 (from UniProt P38936 1-164) (natural protein)”: the fold decrease in fold change of the off-rate with palbociclib against DMSO in experiment [2] turned out to be 10 fold.
